Laboratory results reported in US7371551B1, “Feedback-resistant homoserine transsuccinylases” (priority 2002, dated 2008).

How the values were obtained:
[1] = test system: homoserine transsuccinylase; assay: Homoserine transsuccinylase enzyme test using cell extracts, decrease in extinction at 232 nm, with and without L-methionine; assay type: biochemical, E. coli; details: cell extract of E. coli W3110 transformants; 1 mM homoserine, 0.1 mM succinyl-CoA, 50 mM Tris/Cl pH 7.6
From the text: Any method which enables the activity of the enzyme to be determined in the presence of L-methionine or SAM can be used for determining the sensitivity of the homoserine transsuccinylase to L-methionine and/or SAM. For example, the homoserine transsuccinylase activity can be determined by following the method described by Kredich and Tomkins for determining the activity of serine acetyltransferases (Kredich N. M. and Tomkins G. M., J. Biol. Chem. 241, 4955-4965 (1966)). The enzyme activity is measured in an assay sample which contains homoserine and succinyl-CoA. The reaction is started by adding enzyme and monitored in a spectrophotometer by way of the decrease in the extinction at 232 nm which results from cleavage of the thioester bond in the succinyl-coenzyme A. The described test is suitable for determining the sensitivity of the homoserine transsuccinylases to methionine. The inhibition of homoserine transsuccinylase activity is tested in the presence of different concentrations of L-methionine in the reaction mixture.
The activity, and the influence of L-methionine on the activity, of the different homoserine transsuccinylases were determined by means of an enzyme test using cell extracts in which the respective proteins had been produced. For this, the corresponding plasmids, encoding altered homoserine transsuccinylases, were introduced, by transformation, into the E. coli strain W3110 (ATCC 27325) using methods known to the skilled person. The transformation mixture was spread on LB-tetracycline agar plates (10 g of tryptone/l, 5 g of yeast extract/l, 5 g of NaCl/l, 15 g of agar/l and 15 mg of tetracycline/l) and incubated at 37° C. overnight. The resulting transformants were grown in SM1 medium (for 1 l of medium: CaCl2×2H2O, 0.0147 g, MgSO4×7H2O, 0.3 g, Na2MoO4×2H2O, 0.15 mg, H3BO3, 2.5 mg, CoCl2×6H2O, 0.7 mg, CuSO4×5H2O, 0.25 mg, MnCl2×4H2O, 1.6 mg, ZnSO4×7H2O, 0.3 mg, KH2PO4, 3.0 g, K2HPO4, 12.0 g, (NH4)2SO4, 5 g, NaCl, 0.6 g, FeSO4×7H2O, 0.002 g, Na3-citrate×2H2O, 1 g, glucose, 5 g, tryptone, 1 g, yeast extract, 0.5 g), centrifuged down at an absorption of approx. 0.8 at 600 nm, washed in 50 mM Tris pH 7.5, and centrifuged down once again. The cells were resuspended in 50 mM Tris/Cl, pH 7.5, 2 mM dithiothreitol, 0.5 mM phenylmethylsulfonyl fluoride and disrupted in a French press. The supernatant from a further centrifugation was used as the enzyme extract in the test. The enzyme activity was determined, in a mixture containing 50 mM Tris/Cl, pH 7.6, 1 mM homoserine and 0.1 mM succinyl-CoA, by photometrically quantifying, by means of the decrease in the extinction at 232 nm, the coenzyme A formed in the reaction, following the method described by Kredich and Tomkins for determining the activity of serine acetyltransferases (Kredich N. M. and Tomkins G. M., J. Biol. Chem. 241, 4955-4965 (1966)). The effect of added L-methionine on the activity was determined and the inhibitability was quantified as a Ki value. The Ki which is determined is the concentration of L-methionine at which the activity of the homoserine transsuccinylase is only 50% of its activity in the absence of L-methionine.

[2] = test system: homoserine transsuccinylase; assay: Homoserine transsuccinylase activity test (Lee et al.), 5,5'-dithiobis(2-nitrobenzoic acid), absorption at 412 nm, with and without SAM; assay type: biochemical, E. coli; details: cell extract; 3 mM homoserine, 0.3 mM succinyl-CoA, 50 mM potassium phosphate buffer pH 7.5
Protocol: In order to determine the sensitivity of the activity of the different homoserine transsuccinylases to SAM, it is possible, for example, to carry out an activity test as described in Lee L. W. et al., J. Biol. Chem. 241, 5479-5480 (1966). In this method, the enzyme extract is incubated with homoserine and succinyl-CoA. After various times, a part of the test assay sample is stopped by adding it to a mixture of ethanol, water, and 5,5′-dithiobis(2-nitrobenzoic acid). The absorption is determined photometrically at 412 nm. The described test is suitable, for example, for determining the sensitivity of the homoserine transsuccinylases to SAM.
The influence of SAM on the activities of the different homoserine transsuccinylases was determined by quantifying the activity in the presence of different concentrations of SAM (Cl salt, Sigma). The cell extracts were grown and prepared as described in Example 3. The activity test was carried out as described in Lee L. W. et al., J. Biol. Chem. 241, 5479-5480 (1966), with the enzyme extract being incubated with 50 mM potassium phosphate buffer, pH 7.5, 3 mM homoserine and 0.3 mM succinyl-CoA. After various times, 100 μl volumes of test mixture were stopped by adding them in each case to a mixture of 400 μl of ethanol, 400 μl of water and 100 μl of 10 mM 5,5′-dithiobis(2-nitrobenzoic acid). After the resulting mixture had been incubated at room temperature for 5 minutes, the absorption was determined photometrically at 412 nm. After the protein concentration had been determined, the enzyme activity was calculated using the extinction coefficient. The Ki was determined as a measure of the ability of SAM to inhibit the activity.

Molecule | Activity (U/mg) [1] [U/mg] | Activity (U/mg) [2] [U/mg]
pKP413GAP: E. coli wild-type homoserine transsuccinylase (MetA; Asp101, Tyr294) expressed from starting plasmid pKP413GAP (protein, UniProt P07623 2-309, looked up) Homoserine …: PIRVPDELPAVNFLREENVFVMTTSRASGQEIRPLKVLILNLMPKKIETENQFLRLLSNSPLQVDIQLLRIDSRESRNTPAEHLNNFYCNFEDIQDQNFDGLIVTGAPLGLVEFNDVAYWPQIKQVLEWSKDHVTSTLFVCWAVQAALNILYGIPKQTRTEKLSGVYEHHILHPHALLTRGFDDSFLAPHSRYADFPAALIRDYTDLEILAETEEGDAYLFASKDKRIAFVTGHPEYDAQTLAQEFFRDVEAGLDPDVPYNYFPHNDPQNTPRASWRSHGNLLFTNWLNYYVYQITPYDLRHMNPTLD | 0.155 | 0.62
pSLmetA*K: MetA variant with Lys instead of Tyr at position 294 (protein, UniProt P07623 2-309, looked up, variant Y294K) Homoserine …: PIRVPDELPAVNFLREENVFVMTTSRASGQEIRPLKVLILNLMPKKIETENQFLRLLSNSPLQVDIQLLRIDSRESRNTPAEHLNNFYCNFEDIQDQNFDGLIVTGAPLGLVEFNDVAYWPQIKQVLEWSKDHVTSTLFVCWAVQAALNILYGIPKQTRTEKLSGVYEHHILHPHALLTRGFDDSFLAPHSRYADFPAALIRDYTDLEILAETEEGDAYLFASKDKRIAFVTGHPEYDAQTLAQEFFRDVEAGLDPDVPYNYFPHNDPQNTPRASWRSHGNLLFTNWLNYYVKQITPYDLRHMNPTLD | 0.048 | 0.14
pKP446: MetA variant with Cys instead of Tyr at position 294 (protein, UniProt P07623 2-309, looked up, variant Y294C) Homoserine …: PIRVPDELPAVNFLREENVFVMTTSRASGQEIRPLKVLILNLMPKKIETENQFLRLLSNSPLQVDIQLLRIDSRESRNTPAEHLNNFYCNFEDIQDQNFDGLIVTGAPLGLVEFNDVAYWPQIKQVLEWSKDHVTSTLFVCWAVQAALNILYGIPKQTRTEKLSGVYEHHILHPHALLTRGFDDSFLAPHSRYADFPAALIRDYTDLEILAETEEGDAYLFASKDKRIAFVTGHPEYDAQTLAQEFFRDVEAGLDPDVPYNYFPHNDPQNTPRASWRSHGNLLFTNWLNYYVCQITPYDLRHMNPTLD | 0.133 | 0.49
pSLmetA*P: MetA variant with Pro instead of Tyr at position 294 (protein, UniProt P07623 2-309, looked up, variant Y294P) Homoserine …: PIRVPDELPAVNFLREENVFVMTTSRASGQEIRPLKVLILNLMPKKIETENQFLRLLSNSPLQVDIQLLRIDSRESRNTPAEHLNNFYCNFEDIQDQNFDGLIVTGAPLGLVEFNDVAYWPQIKQVLEWSKDHVTSTLFVCWAVQAALNILYGIPKQTRTEKLSGVYEHHILHPHALLTRGFDDSFLAPHSRYADFPAALIRDYTDLEILAETEEGDAYLFASKDKRIAFVTGHPEYDAQTLAQEFFRDVEAGLDPDVPYNYFPHNDPQNTPRASWRSHGNLLFTNWLNYYVPQITPYDLRHMNPTLD | 0.020 | 0.15
pSLmetA*A: MetA variant with Ala instead of Tyr at position 294 (protein, UniProt P07623 2-309, looked up, variant Y294A) Homoserine …: PIRVPDELPAVNFLREENVFVMTTSRASGQEIRPLKVLILNLMPKKIETENQFLRLLSNSPLQVDIQLLRIDSRESRNTPAEHLNNFYCNFEDIQDQNFDGLIVTGAPLGLVEFNDVAYWPQIKQVLEWSKDHVTSTLFVCWAVQAALNILYGIPKQTRTEKLSGVYEHHILHPHALLTRGFDDSFLAPHSRYADFPAALIRDYTDLEILAETEEGDAYLFASKDKRIAFVTGHPEYDAQTLAQEFFRDVEAGLDPDVPYNYFPHNDPQNTPRASWRSHGNLLFTNWLNYYVAQITPYDLRHMNPTLD | 0.063 | 0.26
pSLmetA*L: MetA variant with Leu instead of Tyr at position 294 (protein, UniProt P07623 2-309, looked up, variant Y294L) Homoserine …: PIRVPDELPAVNFLREENVFVMTTSRASGQEIRPLKVLILNLMPKKIETENQFLRLLSNSPLQVDIQLLRIDSRESRNTPAEHLNNFYCNFEDIQDQNFDGLIVTGAPLGLVEFNDVAYWPQIKQVLEWSKDHVTSTLFVCWAVQAALNILYGIPKQTRTEKLSGVYEHHILHPHALLTRGFDDSFLAPHSRYADFPAALIRDYTDLEILAETEEGDAYLFASKDKRIAFVTGHPEYDAQTLAQEFFRDVEAGLDPDVPYNYFPHNDPQNTPRASWRSHGNLLFTNWLNYYVLQITPYDLRHMNPTLD | 0.070 | 0.29
pSLmetA*Q: MetA variant with Gln instead of Tyr at position 294 (protein, UniProt P07623 2-309, looked up, variant Y294Q) Homoserine …: PIRVPDELPAVNFLREENVFVMTTSRASGQEIRPLKVLILNLMPKKIETENQFLRLLSNSPLQVDIQLLRIDSRESRNTPAEHLNNFYCNFEDIQDQNFDGLIVTGAPLGLVEFNDVAYWPQIKQVLEWSKDHVTSTLFVCWAVQAALNILYGIPKQTRTEKLSGVYEHHILHPHALLTRGFDDSFLAPHSRYADFPAALIRDYTDLEILAETEEGDAYLFASKDKRIAFVTGHPEYDAQTLAQEFFRDVEAGLDPDVPYNYFPHNDPQNTPRASWRSHGNLLFTNWLNYYVQQITPYDLRHMNPTLD | 0.065 | 0.21
pSLmetA*0: MetA variant in which amino acid 294 is deleted (protein, UniProt P07623 2-309, looked up, variant Y294*) Homoserine …: PIRVPDELPAVNFLREENVFVMTTSRASGQEIRPLKVLILNLMPKKIETENQFLRLLSNSPLQVDIQLLRIDSRESRNTPAEHLNNFYCNFEDIQDQNFDGLIVTGAPLGLVEFNDVAYWPQIKQVLEWSKDHVTSTLFVCWAVQAALNILYGIPKQTRTEKLSGVYEHHILHPHALLTRGFDDSFLAPHSRYADFPAALIRDYTDLEILAETEEGDAYLFASKDKRIAFVTGHPEYDAQTLAQEFFRDVEAGLDPDVPYNYFPHNDPQNTPRASWRSHGNLLFTNWLNYYVQITPYDLRHMNPTLD | 0.085 | 0.33
